{"source": "paper doi:10.1101/2020.10.27.356691", "about": "(bioRxiv, 2020)", "binders": {"B1": {"name": "rubredoxin B (RubB) from Mycobacterium tuberculosis, wild type (natural protein)", "chain": "MNDYKLFRCIQCGFEYDEALGWPEDGIAAGTRWDDIPDDWSCPDCGAAKSDFEMVEVARS"}}, "molecular_target": "T1, cytochrome P450 CYP124 from Mycobacterium tuberculosis (Mycobacterium tuberculosis, UniProt P9WPP3 1-428)", "T1 sequence": "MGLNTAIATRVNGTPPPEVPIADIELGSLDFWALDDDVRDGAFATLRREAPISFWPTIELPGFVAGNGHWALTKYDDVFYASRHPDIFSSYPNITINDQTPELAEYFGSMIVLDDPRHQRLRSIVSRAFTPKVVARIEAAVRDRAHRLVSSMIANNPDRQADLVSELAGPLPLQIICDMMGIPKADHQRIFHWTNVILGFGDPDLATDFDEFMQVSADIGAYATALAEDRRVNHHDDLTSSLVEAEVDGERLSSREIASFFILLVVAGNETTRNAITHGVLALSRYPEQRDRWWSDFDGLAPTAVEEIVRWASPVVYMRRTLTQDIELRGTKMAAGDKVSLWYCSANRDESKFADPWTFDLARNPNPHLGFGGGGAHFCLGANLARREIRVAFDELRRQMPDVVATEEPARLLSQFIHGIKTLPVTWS", "experiment": "ITC"}
{"binder": "B1", "values": [{"measurement": "Kd", "value": 12.8, "unit": "µM"}]}
